Results reported in patent publication US20230272055A1 (Incyte, published 2023).
Positions count from the first letter of the chain named. Numbers in names are those of the source.

Key:
[1] = target: T1, Human Type 1 mutCALR (human); assay: cell-based or functional assay
T1 chain: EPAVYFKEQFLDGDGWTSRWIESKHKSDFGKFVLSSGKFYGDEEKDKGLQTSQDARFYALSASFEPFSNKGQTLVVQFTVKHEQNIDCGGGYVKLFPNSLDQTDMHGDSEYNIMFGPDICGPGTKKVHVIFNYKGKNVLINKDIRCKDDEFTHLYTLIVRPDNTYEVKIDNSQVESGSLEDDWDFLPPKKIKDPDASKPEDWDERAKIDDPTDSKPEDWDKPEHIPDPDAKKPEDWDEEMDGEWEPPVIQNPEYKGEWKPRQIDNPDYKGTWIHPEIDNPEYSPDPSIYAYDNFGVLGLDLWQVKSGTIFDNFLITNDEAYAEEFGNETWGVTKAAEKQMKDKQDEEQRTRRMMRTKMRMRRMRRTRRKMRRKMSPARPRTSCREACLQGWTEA

[2] = target: T1, Human Type 1 mutCALR; assay: cell-based or functional assay
[3] = target: T1, Human Type 1 mutCALR; assay: cell-based or functional assay
[4] = target: T2, Recombinant MBP-mutCALR Type 2 fusion protein (human); assay: SPR, IgG captured, 1:1 fit, Exp. 3
T2 construct: custom made at Cepter
Protocol: Experiment 2: Recombinant MBP-mutCALR Type 1 fusion protein was custom made at Cepter (cepterbiopartners.com). Data for the interaction of antibodies with recombinant mutCALR protein were collected at 25° C. on a Biacore 8K instrument (Cytiva, Marlborough, Mass.), and all reagents were obtained from Cytiva unless otherwise specified. The experiments were conducted using Tris-buffered saline (pH 7.2), 0.005% Surfactant P20, 1 mM CaCl₂) as running buffer. To prepare the capture surfaces, anti-human IgG (Fc) antibodies (Product #29234600) was amine-coupled onto a CM4 chip (Product #BR100534) under standard conditions using an Amine Coupling Kit (Product #BR100050). […] The kinetics parameters were obtained by applying 1:1 binding model to fit the data from multiple-cycle injection experiments using Biacore Insight Evaluation software.
Recombinant MBP-mutCALR Type 2 fusion protein was custom made at Cepter (cepterbiopartners.com). Data for the interaction of antibodies with recombinant MBP-mutCALR Type 2 fusion protein were collected as described in Experiment 2. The chip used was a Biacore Series S Sensor Chip CM4 with anti-huFc immobilized onto the chip surface.

[5] = target: T3, human Type 1 mutCALR (52 bp deletion) (human); assay: flow cytometry on BaF3 cells stably expressing human MPL and human mutCALR Type 1, goat anti-human R-PE secondary, GMFI
T3 construct: also called human mutCALR Type 1; mutant CALR
T3 chain: T1 chain
Protocol: Approximately 200,000 cells/well were added to 96-well plates and stained with the indicated concentration of antibodies for 30 minutes on ice. Cells were then washed and stained with goat anti-human secondary conjugated to R-phycoerythrin (R-PE) (Jackson Immuno Research Laboratories) for 30 minutes on ice. The cells were then washed again and analyzed by flow cytometry.

[6] = target: T4, Recombinant MBP-mutCALR Type 1 fusion protein (human); assay: SPR, IgG captured, 1:1 fit, Exp. 2
T4 construct: custom made at Cepter; also called recombinant mutCALR protein
How it was run: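 Antibodies captured via amine-coupled anti-human IgG (Fc) on a CM4 chip; recombinant MBP-mutCALR Type 1 fusion protein as analyte. Run at 25 °C in Tris-buffered saline pH 7.2, 0.005% P20, 1 mM CaCl₂. Multiple-cycle kinetics fitted to a 1:1 binding model.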

B1: anti-mutCALR antibody clone 40 (antibody, human IgG1, lambda, V domains shown)
VH: EVQLVQSGAEVKKPGASVKVSCKVSGYTLTESSMHWVRQAPGKGLEWMGLVDPEDGETIYAQKFQGRVTMTEDTSTDTAYMELSSLRSEDTAVYYCAREEWSGDGDDAFDIWGQGTMVTVSS
VL: QSVLTQPPSVSAAPGQKVTISCSGSSSNIGSYSVSWYQQLPGTAPKLLIYDNNKRPSGIPDRFSGSNSGTSATLGITGLQTGDEADYYCGTWDSSLSAWVFGGGTKLTVLG
IC50 of inhibition of cell proliferation (Ba/F3 cells with MPL and mutCALR Type 1) [1]: 0.0384 µg/mL
Log IC50 of inhibition of cell proliferation, antibody + ruxolitinib (Ba/F3-TPOR/mutCALR type 1 cells); extrapolated from fitted curve [2]: -1.59 Log IC50 (µg/mL)

B2: anti-mutCALR antibody clone 41 (antibody, human IgG1, lambda, V domains shown)
VH: B1 VH with S32L
VL: B1 VL
IC50 of inhibition of cell proliferation (Ba/F3 cells with MPL and mutCALR Type 1) [1]: 0.342 µg/mL
IC50 of inhibition of cell proliferation (BaF3 cells expressing MPL/mutCALR Type 1) [3]: 3.98 µg/mL

B3: anti-mutCALR antibody clone 52 (antibody, human IgG1, kappa, V domains shown)
VH: EVQLVQSGAEVKKPGASVKVSCKVSGYTLTELSMHWVRQAPGKGLEWMGLVDPEDGETIYAEKFQGRVTITADTSTDTAYMELSSPRSEDTAVYYCATTIGDDYFDYWGQGTLVTVSS
VL: not shown
IC50 of inhibition of cell proliferation (Ba/F3 cells with MPL and mutCALR Type 1) [1]: 0.0337 µg/mL
Log IC50 of inhibition of cell proliferation, antibody + ruxolitinib (Ba/F3-TPOR/mutCALR type 1 cells) [2]: -0.709 Log IC50 (µg/mL)

B4: anti-mutCALR antibody clone 162 (antibody, human IgG1, lambda, N297A)
heavy: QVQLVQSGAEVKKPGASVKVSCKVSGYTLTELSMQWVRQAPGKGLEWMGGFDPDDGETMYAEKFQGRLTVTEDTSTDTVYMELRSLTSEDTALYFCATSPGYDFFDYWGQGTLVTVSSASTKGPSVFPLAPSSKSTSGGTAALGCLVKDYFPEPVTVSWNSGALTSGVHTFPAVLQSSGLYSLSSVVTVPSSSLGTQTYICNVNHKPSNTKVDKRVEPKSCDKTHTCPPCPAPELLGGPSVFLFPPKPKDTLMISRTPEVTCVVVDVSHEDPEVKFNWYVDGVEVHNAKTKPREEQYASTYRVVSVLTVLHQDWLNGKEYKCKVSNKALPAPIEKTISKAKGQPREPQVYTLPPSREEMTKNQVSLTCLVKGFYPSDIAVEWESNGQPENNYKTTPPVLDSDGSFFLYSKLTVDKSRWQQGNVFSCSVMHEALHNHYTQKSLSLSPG
light: SYVLTQPPSVSVAPGKTARITCGGDNIGSKSVHWYQQKPGQAPVLVVYDDSDRPSGIPERFSGSNSGNTATLTISRVEAGDEADYYCQVWDSSNDLLIFGGGTKLTVLGQPKAAPSVTLFPPSSEELQANKATLVCLISDFYPGAVTVAWKADSSPVKAGVETTTPSKQSNNKYAASSYLSLTPEQWKSHRSYSCQVTHEGSTVEKTVAPTECS
notes: human IgG1 N297A variant of clone 15
Kd [4]: 11.2 nM
koff [4]: 0.00682 s⁻¹
kon [4]: 607000 M⁻¹ s⁻¹

B5: anti-mutCALR antibody clone 32 (antibody, human IgG1, lambda, V domains shown)
VH: QVQLVQSGAEVKKPGATVKISCKVSGYSFTDYFIHWVQQAPGKGLAWVGLVDPEDGETIYAEKFQGRVTITADTSTDTAYMELSSLRSEDTAVYYCATPGGILTDPDAFDIWGQGTMVTVSS
VL: QSALTQPASVSGSPGQSITISCTGTSSDVGGYNYVSWYQQHPGKAPKLMIYEVSNRPSGVSNRFSGSKSGNTASLTISGLQAEDEADYYCSSYTSSSTPYVFGTGTKVTVLG
IC50 of inhibition of cell proliferation (Ba/F3 cells with MPL and mutCALR Type 1) [1]: 0.225 µg/mL
Log IC50 of inhibition of cell proliferation, antibody + ruxolitinib (Ba/F3-TPOR/mutCALR type 1 cells); extrapolated from fitted curve [2]: -0.586 Log IC50 (µg/mL)
Log IC50 of inhibition of cell proliferation, antibody alone (Ba/F3-TPOR/mutCALR type 1 cells); extrapolated from fitted curve [2]: 0.18 Log IC50 (µg/mL)

B6: anti-mutCALR antibody clone 35 (antibody, human IgG1, lambda, V domains shown)
VH: B5 VH with K63R
VL: B5 VL
IC50 of inhibition of cell proliferation (Ba/F3 cells with MPL and mutCALR Type 1) [1]: 0.088 µg/mL
IC50 of inhibition of cell proliferation (BaF3 cells expressing MPL/mutCALR Type 1) [3]: 2.18 µg/mL

B7: anti-mutCALR antibody clone 37 (antibody, human IgG1, lambda, V domains shown)
VH: B5 VH
VL: B5 VL with E52D, P99F
IC50 of inhibition of cell proliferation (BaF3 cells expressing MPL/mutCALR Type 1) [3]: 0.201 µg/mL

B8: anti-mutCALR antibody clone 36 (antibody, human IgG1, lambda, V domains shown)
VH: B5 VH
VL: QSALTQPRSVSGSPGQSVTISCAGTGSDVGGYNYVSWYQHHPGKAPKLMIYDVNKRPSGVPDRFSGSKSGNTASLTISGLQAEDEADYYCSSYTSSSTFYVFGTGTKVTVLG
IC50 of inhibition of cell proliferation (Ba/F3 cells with MPL and mutCALR Type 1) [1]: 0.0905 µg/mL
Log IC50 of inhibition of cell proliferation, antibody + ruxolitinib (Ba/F3-TPOR/mutCALR type 1 cells); extrapolated from fitted curve [2]: -3.88 Log IC50 (µg/mL)
IC50 of inhibition of cell proliferation (BaF3 cells expressing MPL/mutCALR Type 1) [3]: 0.98 µg/mL

B9: anti-mutCALR antibody clone 34 (antibody, human IgG1, lambda, V domains shown)
VH: B5 VH
VL: QSALTQPASVSGSPGQSITISCTGTSSDVGGYNYVSWYQQHPGKAPKLMIYEVSNRPSGVSNRFSGSKSGNTASLTISGLQAEDEADYYCSSYTSSSTYVFGTGTKVTVLG
IC50 of inhibition of cell proliferation (Ba/F3 cells with MPL and mutCALR Type 1) [1]: 0.0593 µg/mL

B10: anti-mutCALR antibody clone 33 (antibody, human IgG1, lambda, V domains shown)
VH: B5 VH
VL: B8 VL with Y34H, T94I, S95P, F99R, Y100W, T104G, V108L
IC50 of inhibition of cell proliferation (Ba/F3 cells with MPL and mutCALR Type 1) [1]: 16.9 µg/mL

B11: AB2: anti-mutCALR antibody including VH and VL regions of antibody B3 from WO2020175689 fused to human constant regions (antibody, human IgG1, kappa, V domains shown)
VH: QVQLQQSGAELVKPGSSVKISCKASGYTFTRNFIHWIKQQPGNGLEWIGWIFPGDGDTEYNQKFNGKATLTADKSSSTAYMQLSSLTSEDSAVYFCARGNYNYEYFDYWGQGVMVTVSS
VL: DIQMTQSPASLSASLGETVSIECLASEDIYSYLAWYQQKPGKSPQLLIFAANRLQDGVPSRFSGSGSGTQFSLKISGMQPEDEGDYFCLQGSKFPYTFGPGTKLELNR
binding result [5]: binds

B12: anti-mutCALR antibody clone 65 (antibody, human IgG1, lambda, N297A, V domains shown)
VH: EVQLVQSGAEVKKPGASVKVSCKVSGYTLTELSMQWVRQAPGKGLEWMGGFDPDDGETMYAEKFQGRLTVTEDTSTDTVYMELRSLTSEDTALYFCATSPGYDFFDYWGQGTLVTVSS
VL: SYVLTQPPSVSVAPGKTARITCTGTSSDVGGYNYVSWYQQKPGQAPVLVVYEVSNRPSGIPERFSGSNSGNTATLTISRVEAGDEADYYCQVWDSSNDLLIFGGGTKLTVLG
notes: human IgG1 N297A variant of clone 6
Kd [6]: 0.502 nM
koff [6]: 0.00231 s⁻¹
kon [6]: 4.6e+06 M⁻¹ s⁻¹
Kd [4]: 6.35 nM
koff [4]: 0.00424 s⁻¹
kon [4]: 668000 M⁻¹ s⁻¹

B13: anti-mutCALR antibody clone 74 (antibody, human IgG1, lambda, N297A, V domains shown)
VH: B12 VH with G56A, R84S, T87R, L93V
VL: B12 VL
notes: as for B12
Kd [6]: 1.19 nM
koff [6]: 0.00153 s⁻¹
kon [6]: 1.29e+06 M⁻¹ s⁻¹
Kd [4]: 6.78 nM
koff [4]: 0.00579 s⁻¹
kon [4]: 854000 M⁻¹ s⁻¹

B14: anti-mutCALR antibody clone 53 (antibody, human IgG1, lambda, V domains shown)
VH: QVQLVQSGAEVKKPGASVKVSCKVSGYTLTELSMHWVRQAPGKGLEWMGGFDPEDGETIYAQKFQGRVTMTEDTSTDTAYMELSSLRSEDTAVYYCATDIQGLAEFDYWGQGTLVTVSS
VL: QSALTQPRSVSGSPGQSVTISCTGTNTDVGAYIDVSWYQQHPGKAPKLIIYDVSKWPSGVPDRFSGSKSGNTASLTISGLQAEDEADYYCCSYAGNHSFSFGGGTKVTVLG
IC50 of inhibition of cell proliferation (Ba/F3 cells with MPL and mutCALR Type 1) [1]: 0.399 µg/mL
Log IC50 of inhibition of cell proliferation, antibody + ruxolitinib (Ba/F3-TPOR/mutCALR type 1 cells) [2]: -0.424 Log IC50 (µg/mL)
Log IC50 of inhibition of cell proliferation, antibody alone (Ba/F3-TPOR/mutCALR type 1 cells) [2]: -0.173 Log IC50 (µg/mL)
IC50 of inhibition of cell proliferation (BaF3 cells expressing MPL/mutCALR Type 1) [3]: 9.5 µg/mL

B15: AB3: anti-mutCALR antibody including the BJ095 VH region and the BJ097 VL region from WO2019178362 fused to human constant regions (antibody, human IgG1, kappa, V domains shown)
VH: QVQLVQSGAEVKKPGASVKVSCKASGYSFTGYYIHWVRQAPGQGLEWIGYISAYNGASSYNQKFKGRATFTVDTSISTAYMELSRLRSDDTAVYYCASSMDYWGQGTLVTVSS
VL: DVVMTQSPLSLPVTLGQPASISCKSSQSLLDSDGKTYLNWLQQRPGQSPKRLIYLVSKLDSGVPDRFSGSGSGTDFTLKISRVEAEDVGVYHCWQGTHFPYTFGQGTKLIEKR
binding result [5]: binds
